Data: paper PMC9316223, “Can Modern Molecular Modeling Methods Help Find the Area of Potential Vulnerability of Flaviviruses?” (International Journal of Molecular Sciences, 2022)

How the values were obtained:
Conditions in all cases: both partners purified
[1] = target: T1, TEF1, fragment of TBEV E protein containing 1-187 aa (Tick-borne encephalitis virus, strain …, UniProt Q01299); assay: far-Western, overlay or dot blot
T1 construct: source: E. coli BL21(DE3), purified (lysis buffer with 8 M urea, Ni-IMAC Sepharose)

[2] = target: T2, ZEF1, fragment of ZIKV E protein containing 1-187 aa (Zika virus, strain MR-766 (KX377335.1), UniProt A0A192GPS6); assay: far-Western, overlay or dot blot; dot blot: recombinant proteins (1 µL at 1.5 mg/mL) adsorbed onto nitrocellulose; 10H10 mAb 2 μg/mL in PBS, 0.1% Tween-20, 1% BSA for 10 min; detected with goat anti-mouse IgG conjugated with alkaline phosphatase
T2 construct: envelope protein E of Zika virus strain MR-766 (genome KX377335.1), residues 1-187; numbers count on: the E protein (cut product of the polyprotein); Cloned into pET32 (NcoI/XhoI); the vector may add further linker and tag residues; The UniProt entry recalled is of strain Mr 766 from another GenBank record and may differ in a few residues from KX377335.1; source: E. coli BL21(DE3), purified …

[3] = target: T3, DEF1, fragment of DENV E protein containing 1-184 aa (Dengue virus 3, strain Sri …, UniProt Q6YMS4); assay: as above
T3 construct: envelope protein E of dengue virus 3 strain Sri Lanka/1266/2000 (genome AY099336.1), residues 1-184; numbers count on: the E protein (cut product of the polyprotein); Cloned into pET32 (BamHI/XhoI); the vector may add further linker and tag residues; source: E. coli BL21(DE3), purified (lysis buffer with 8 M urea, Ni-IMAC Sepharose)

[4] = target: T4, WEF1, fragment of WNV E protein containing 1-186 aa (West Nile virus, strain 956 …, UniProt P06935); assay: as above
T4 construct: envelope protein E of West Nile virus strain 956 (genome NC_001563.2), residues 1-186; numbers count on: the E protein (cut product of the polyprotein); Cloned into pET32 (BamHI/XhoI); the vector may add further linker and tag residues between thioredoxin and the insert; source: E. coli BL21(DE3), purified (lysis buffer with 8 M urea, Ni-IMAC Sepharose)
T4 sequence (P06935 whole entry, looked up, the tested form may be a part): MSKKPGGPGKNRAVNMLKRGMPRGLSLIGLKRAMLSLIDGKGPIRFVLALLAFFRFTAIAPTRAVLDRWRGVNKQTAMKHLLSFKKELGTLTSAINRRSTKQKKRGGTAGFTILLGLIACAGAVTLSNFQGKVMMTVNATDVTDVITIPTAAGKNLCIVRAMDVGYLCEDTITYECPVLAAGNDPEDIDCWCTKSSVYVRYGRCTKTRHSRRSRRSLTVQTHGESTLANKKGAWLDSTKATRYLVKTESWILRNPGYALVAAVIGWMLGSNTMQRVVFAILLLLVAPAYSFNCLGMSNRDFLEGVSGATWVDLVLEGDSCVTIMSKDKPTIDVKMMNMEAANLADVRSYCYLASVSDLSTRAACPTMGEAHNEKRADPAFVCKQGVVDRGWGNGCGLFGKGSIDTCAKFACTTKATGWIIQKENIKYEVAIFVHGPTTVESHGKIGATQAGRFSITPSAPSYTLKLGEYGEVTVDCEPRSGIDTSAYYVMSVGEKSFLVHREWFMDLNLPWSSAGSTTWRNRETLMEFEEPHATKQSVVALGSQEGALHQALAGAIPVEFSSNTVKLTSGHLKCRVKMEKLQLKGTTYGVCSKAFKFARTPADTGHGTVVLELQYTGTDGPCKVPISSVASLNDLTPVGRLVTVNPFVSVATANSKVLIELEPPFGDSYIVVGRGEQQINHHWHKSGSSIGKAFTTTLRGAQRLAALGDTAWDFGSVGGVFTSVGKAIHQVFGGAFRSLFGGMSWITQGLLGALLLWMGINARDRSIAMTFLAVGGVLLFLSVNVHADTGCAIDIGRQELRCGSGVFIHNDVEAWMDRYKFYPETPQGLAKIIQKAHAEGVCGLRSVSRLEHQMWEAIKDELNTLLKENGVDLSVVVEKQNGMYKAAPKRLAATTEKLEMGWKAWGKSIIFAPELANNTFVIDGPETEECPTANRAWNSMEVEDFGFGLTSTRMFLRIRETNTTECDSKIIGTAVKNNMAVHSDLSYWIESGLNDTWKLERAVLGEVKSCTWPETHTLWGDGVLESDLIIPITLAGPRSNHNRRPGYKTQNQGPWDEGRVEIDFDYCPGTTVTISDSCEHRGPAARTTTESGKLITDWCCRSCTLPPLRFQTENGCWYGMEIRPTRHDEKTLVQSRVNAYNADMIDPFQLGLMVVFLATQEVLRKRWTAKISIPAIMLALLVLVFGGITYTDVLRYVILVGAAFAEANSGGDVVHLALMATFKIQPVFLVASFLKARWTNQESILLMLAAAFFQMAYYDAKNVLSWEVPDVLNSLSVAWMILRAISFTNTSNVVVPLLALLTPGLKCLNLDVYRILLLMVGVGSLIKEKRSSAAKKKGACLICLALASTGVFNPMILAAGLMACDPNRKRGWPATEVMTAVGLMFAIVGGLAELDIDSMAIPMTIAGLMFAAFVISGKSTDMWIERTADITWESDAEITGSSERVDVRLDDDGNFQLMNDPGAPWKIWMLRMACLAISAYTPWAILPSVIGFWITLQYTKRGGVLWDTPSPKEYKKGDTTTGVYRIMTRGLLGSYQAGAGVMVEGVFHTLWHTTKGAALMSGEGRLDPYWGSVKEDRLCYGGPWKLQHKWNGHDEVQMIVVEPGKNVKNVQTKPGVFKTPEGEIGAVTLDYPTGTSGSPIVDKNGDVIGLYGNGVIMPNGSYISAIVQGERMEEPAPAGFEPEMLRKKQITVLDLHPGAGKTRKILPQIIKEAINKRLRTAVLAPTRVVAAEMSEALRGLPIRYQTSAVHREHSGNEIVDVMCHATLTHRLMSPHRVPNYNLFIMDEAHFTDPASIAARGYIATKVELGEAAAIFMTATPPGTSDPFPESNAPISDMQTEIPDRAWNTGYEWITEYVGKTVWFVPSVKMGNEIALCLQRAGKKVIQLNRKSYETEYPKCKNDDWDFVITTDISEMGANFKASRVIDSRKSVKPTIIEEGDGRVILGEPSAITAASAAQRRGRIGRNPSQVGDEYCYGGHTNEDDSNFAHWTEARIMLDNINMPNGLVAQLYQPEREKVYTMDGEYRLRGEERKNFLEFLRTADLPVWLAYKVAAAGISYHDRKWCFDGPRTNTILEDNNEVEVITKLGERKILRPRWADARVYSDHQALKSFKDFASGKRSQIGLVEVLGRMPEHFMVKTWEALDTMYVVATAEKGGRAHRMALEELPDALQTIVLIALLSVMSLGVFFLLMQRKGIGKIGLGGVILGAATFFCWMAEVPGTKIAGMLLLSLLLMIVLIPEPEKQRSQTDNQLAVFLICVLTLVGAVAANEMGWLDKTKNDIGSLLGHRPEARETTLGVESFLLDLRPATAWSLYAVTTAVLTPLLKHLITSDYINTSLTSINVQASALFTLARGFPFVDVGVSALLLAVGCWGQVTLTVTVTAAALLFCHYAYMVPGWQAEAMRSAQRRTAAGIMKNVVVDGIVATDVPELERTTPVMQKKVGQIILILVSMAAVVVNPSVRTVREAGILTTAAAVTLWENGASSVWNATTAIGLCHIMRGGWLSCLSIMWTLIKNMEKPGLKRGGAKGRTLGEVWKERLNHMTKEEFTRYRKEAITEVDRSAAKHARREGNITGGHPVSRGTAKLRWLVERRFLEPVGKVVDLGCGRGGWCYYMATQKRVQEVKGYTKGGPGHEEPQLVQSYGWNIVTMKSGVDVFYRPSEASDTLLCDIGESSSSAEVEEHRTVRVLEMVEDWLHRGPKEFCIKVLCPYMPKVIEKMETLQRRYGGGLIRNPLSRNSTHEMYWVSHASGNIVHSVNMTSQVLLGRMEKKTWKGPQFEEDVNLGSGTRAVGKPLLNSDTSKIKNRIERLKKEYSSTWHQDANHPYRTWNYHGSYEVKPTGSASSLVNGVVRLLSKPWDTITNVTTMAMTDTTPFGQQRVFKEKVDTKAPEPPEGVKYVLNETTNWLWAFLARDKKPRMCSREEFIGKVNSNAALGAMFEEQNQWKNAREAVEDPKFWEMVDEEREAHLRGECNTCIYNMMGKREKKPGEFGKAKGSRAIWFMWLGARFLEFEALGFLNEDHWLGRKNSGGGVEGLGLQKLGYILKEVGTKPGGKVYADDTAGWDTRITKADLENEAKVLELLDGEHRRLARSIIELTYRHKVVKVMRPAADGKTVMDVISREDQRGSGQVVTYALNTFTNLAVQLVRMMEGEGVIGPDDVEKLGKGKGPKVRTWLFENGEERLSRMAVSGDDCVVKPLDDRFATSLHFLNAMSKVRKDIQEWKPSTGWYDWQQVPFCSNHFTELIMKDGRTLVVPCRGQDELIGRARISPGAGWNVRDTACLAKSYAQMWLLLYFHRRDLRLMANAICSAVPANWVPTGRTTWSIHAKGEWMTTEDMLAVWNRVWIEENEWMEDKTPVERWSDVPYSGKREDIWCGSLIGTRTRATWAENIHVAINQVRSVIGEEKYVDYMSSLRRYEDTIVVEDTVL

Measured: binding result

B1: 10H10 monoclonal antibody (antibody, V domains shown)
VH: VKLEESGGGLVKPGGSLKLSCAASGFSFSDYYMYWVRQTPEKRLEWVATISDGGSHTSYRDSVKGRFTISRDNGKNNLYLQMSSLKSEDTAMYYCVRGAYWGQGTLVTVSS
VL: not shown
notes: also called 10H10 mAb; 10H10 antibody
binds: all assays above
